Measured values as given in the DeepSol protein solubility set.

Experiment: soluble on expression in E. coli; label from the status in PepcDB or PDB records

Sequence	soluble on expression in E. coli
MFSDELEKISWEETTKAIYSKTDADVRRALSKEHCDVNDFMALISPAAAPYLETMARLSRKYTMERFGKTISMFVPLYITNSCTNSCVYCGFNHNNPMKRTILTEEEMVNEYKAIKKLAPFENLLLVTGENPAKAGVDYIERALLLAKPYFANLQIEVMPLKAEEYERLTHAGLNGVICFQETYNKANYNIYHPRGMKSKFEWRVNGFDRMGQAGVHKIGMGVLIGLEEWRTDITMMAYHLRYLQKHYWKTKYSVNFPRMRPSENGGFQPNVVMNDRELAQVTFAMRIFDHDVDISYSTRESAAFRNHMATLGVTTMSAESKTEPGGYFTYPQALEQFHVSDERKAVEVDAALRSLGRIPVYKDWDTALTLPQC	soluble
GQELPPGTYRVDIYLNNGYMATRDVTFNTGDSEQGIVPCLTRAQLASMGLNTASVAGMNLLADDACVPLTTMVQDATAHLDVGQQRLNLTIPQAFMSNRARGYIPPELWDPGINA	soluble
PPNEQAVLNMYEGKRSELSQIYSNITDLEMQVSEHSLVINAIQPLDQSRKCFRMIGGVLVERTIKEVLPAVQRNKDGLEEVVRKLYETLEKKKKDLTEFEAKYKIRITKQEDNKEGGNKKEGNAQGVLVGAASSSQ	not soluble
MTSVTSSATSSPEPPTKVAAAMQTTTGETSISNETSFNASRETSLTALGFLDYLDEEQRAALLGEGLDISTLTWANQVTALRVLESLFNEHAYELVSAVIQHVAQEPGDNPHHFLKFSPEPSTENSWELTLDGPTVGLKVTFDPDGQITFKDAHLGLSPAEVVSVTEALDTSYSESQIKKAAEQLVGSLNPTQQAALQGSGLRGAQLTEEQKTLFLKMTSNWIDLANGDSGSEQQEEIADTFSDTYIIWNEQKDGSAFFQMKGPELDFSYKESVPENAELSARGVPNIQTSFQSPLEHHHHHH	soluble
MLDRILSIRKSRANRLRESMAKINSQIKEVDGKLDDCEQSIKESIASKQAYCASLVNLDKVSLYKYQIKNNAFDEQKQRLYEKKSSLSKEKRSLLDSQKRTKENLQHVNKSVEKLSFAIKEHYFD	not soluble
MIRQLSLKDYEGVAGSALIDEIRSLGESLQGYNVRHINSTIIGGGVAEILSSLVPLMEDVGLTVNWEVLAGTTEFFHTTKLFHNGMHGQPVNITGEMLENYLAIAQKNQNLLDGDADLVVIHDQQPLGLTAFRGRTRGRWLWYCHVDPRYAVPEVWYFLAPMVATCDAAVFHLPEYARDLPVLQYFMPPAIDPLSDKLEHHHHHH	soluble
MTKIIKNGTIVTATDTYEAHLLIKDGKIAMIGQNLEEKGAEVIDAKGCYVFPGGIDPHTHLDMPLGGTVTKDDFESGTIAAAFGGTTTIIDFCLTNKGEPLKKAIETWHNKANGKAVIDYGFHLMISEITDDVLEELPKVLEEEGITSLKVFMAYKNVFQADDGTLYCTLLAAKELGALVMVHAENGDVIDYLTKKALADGNTDPIYHALTRPPELEGEATGRACQLTELAGSQLYVVHVTCAQAVEKIAEARNKGLDVWGETCPQYLVLDQSYLEKPNFEGAKYVWSPPLREKWHQEVLWNALKNGQLQTLGSDQCSFDFKGQKELGRGDFTKIPNGGPIIEDRVSILFSEGVKKGRITLNQFVDIVSTRIAKLFGLFPKKGTIVVGSDADLVIFDPNIERVISAETHHMAVDYNAFEGMKVTGEPVSVLCRGEFVVRDKQFVGKPGYGQYLKRAKYGT	soluble
MKDAKGIDKQWVILNELASKISKVRPLPEDVYSKLRIANNIITYYLLDEHADFEVLRDAEKEISKIQVILFGLADQDVSKEYLIKMGQALRNEIDLEFPLKQTAFNTEVKRKKGSETIRIKMPVEVQIEVLGELSEHNGVIFELSQDDEQKILVEGVKERITSALKDFSVIWKFQDNLEHHHHHH	not soluble
MTAASLDPTAFSLDAASLAARLDAVFDQALRERRLVGAVAIVARHGEILYRRAQGLADREAGRPMREDTLFRLASVTKPIVALAVLRLVARGELALDAPVTRWLPEFRPRLADGSEPLVTIHHLLTHTSGLGYWLLEGAGSVYDRLGISDGIDLRDFDLDENLRRLASAPLSFAPGSGWQYSLALDVLGAVVERATGQPLAAAVDALVAQPLGMRDCGFVSAEPERFAVPYHDGQPEPVRMRDGIEVPLPEGHGAAVRFAPSRVFEPGAYPSGGAGMYGSADDVLRALEAIRANPGFLPETLADAARRDQAGVGAETRGPGWGFGYLSAVLDDPAAAGTPQHAGTLQWGGVYGHSWFVDRALGLSVLLLTNTAYEGMSGPLTIALRDAVYAR	soluble
ASTQGISEDLYNRLVEMATISQAAYADLCNIPSTIIKGEKIYNAQTDINGWILRDDTSKEIITVFRGTGSDTNLQLDTNYTLTPFDTLPQCNDCEVHGGYYIGWISVQDQVESLVKQQASQYPDYALTVTGHSLGASMAALTAAQLSATYDNVRLYTFGEPRSGNQAFASYMNDAFQVSSPETTQYFRVTHSNDGIPNLPPAEQGYAHGGVEYWSVDPYSAQNTFVCTGDEVQCCEAQGGQGVNDAHTTYFGMTSGACTW	soluble
MGSDKIHHHHHHMMIATFSLSPAGAKRLIARGLINEAVFQQAMTHGRMIIGVGTTNSYIAEELGLLSADEKPRFAAGIVSGGVPCVTAADTRFTSICLENGRIIKDISWEEFIMDFNRDDVFVKGANAFDADGNAGVLLANPRGGTVGGSFGVLAARGCKLLVPVGHEKLIPSCTAAARLMGINRLDYSLGQRCGLALLPAGFAQIYTEIDALKTLFAVEATIVAAGGVSGSEGSVMLAIDGPDEAVKDALALARTLLKEKPLSVPRQSCKDCQASGNCVFKEIPPID	not soluble
MIFVGNFIQDEKGKGLRIGFVHYRPFDETVGMNLPEETIRQMGALVDEIPEPEQREGKIPVMYYNPETNTVYYEYEDKPLSLEEEIKYLKELNAELIYQLMMKGAL	not soluble
MSYLRALFFVLAMLATFGSMAGEPAHSDSGRDQVIRQILSDFWGNAKDVHGNAIQPASQEDRATVPISRAAAYRALEAGNLSGLAEWCGLDWEQHYLGLTEEARKMGMLDKQVAFFSVLHGAGQGAMVGSRSGQTCTAKQRTRIETLLLESQKEGLPSDALNGWQ	not soluble
MSLSHLVVFDLDGTLTRQRGGFELLHTLYGTTPEAETLMNRFEAGEITFTEWCQGAVDMWRANDITRSDITRATRALKPKAGAVDLLAHLQQTDIRFGILSAGVANLAARFEPYEPAFVRGNWLQFEDRRVSAIDIGVGPNEKGELLRKIRSKQNPVSITYIGDSHTDTEAFIEADTAVLFDPDERVPETAIDAADTIIESADIAEVQNCIPTEGHHHHHH	not soluble
MDCCEERGVARHKGLSQVGTPGCPRWSQAVSCRCSAYREAAVTAVQMPLTPGYGETPLPHDELAALLPEVVEVLDKPITRADVYDLEQGLQDQVFDLLMPTAVEGSLSLDELLSDHFVRDLHARMFGPV	soluble
MLQDAVEDLGCELWGIECQRVGRFMTVRLFIDKDGGVTVDDCADVSRQVSAILDVEDPIADKYNLEVSSPGLDRPLFTLPQFERYIGQDIAVHLRIPVMERRKWQGKLERIEKDMITLIVDDQEQILVFGNIQKANVVAKF	not soluble
ARSEKRVPMTRLRKRVAERLLEAKNSTAMLTTFNEVNMKPIMDLRKQYGEAFEKRHGIRLGFMSFYVKAVVEALKRYPEVNASIDGDDVVYHNYFDVSMAVSTPRGLVTPVLRDVDTLGMADIEKKIKELAVKGRDGKLTVEDLTGGNFTITNGGVFGSLMSTPIINPPQSAILGMHAIKDRPMAVNGQVEILPMMYLALSYDHRLIDGRESVGFLVTIKELLEDPTRLLLDV	soluble
MAHHHHHHMNPHQVNPSDQIAELVVESPHFSFNCAHFIAFKGFRETLHGHNYNVSLKLRGYIQQDGYVIDFSILKEKLKRVCKQLDHHFILPMYSDVLNIQMLEDNFKIICEDKSEYSFPKRDCVQIPIKHSSTEEIGLYILNKIIEELGLPFLKARSVNYMEVTVSESPTQKATVHRNI	not soluble
MKRKSKAGGASDKSKSPKLKKRRSVVLEPIHISPKYLEDKFKTEFKKGFEKSNGPFPHWQLRNFVDNSDNVVEKIEDELQNFEGWKRKENDLYSLYQSDDLKSINPVENPAVFSFRQFLYKEVKEWLQNVSGVELTEQVDCNGSCYARTDSLLPHNDLIETRRFAFVYYITSADWDSEVNGGDLQLFNHDKKLQPTSVAAQFSPLRNSFMLFEVSEKSWHRVAEMLSEEPRLSINGWFHSTRRIEPKKPAVEAIQRFVPEAACKLSKLISKEYLQKERQDEVQQTFADSSELNLSKFIFEEIHDNAYSELISNPSCFETVGPVSKRHVARLDEEKSADLQNTKRIIQCLKSKNFAKLAAKLTGVTVTGAQTSVKVSRVEHGTYWVLGDEDAEQSSTDGYCLDVHLFVQKTNWDDEAGGDLIYIEEGDTEELLRISPSPNAASIVFREPGVISFMKYANCKSSDPFFLFTVSFYNVQVVED	not soluble
MSLAGVSVGTVDRVIHNRGRVSEENRKKVQTILEMVHYQPNLMARSLASKKQYHFVAITPSFTHGEYWEAISDGIDKAASEMESYNITITKLFFDQYNNKTFDDIVRNLLDEKVDGVLIATLFTDSVIRLSQELDRNEIPYVYVDSNIEGQHQLAYFGTESYDAGVIAARLLTDKISSTSDILMARIIHSGKNDSNQGKNRREGFCHYLKETGFTGNLHEVELKINDSVYNFIKLDEIFEANATIEGGIIFNSTCYILGNYLKARGMQKVKLVGYDLIERNTQLLSDGVITALVAQRPERQGYDGIKSLCNHLLFKQNPEKVNLMPIDILLKENLKYYLNNKEGHHHHHH	soluble
MFARNFFKGGTKVPHFKNTAECETVKMGVPEKVVIPMLQHVGAPCEPCVKKGDTVRVGQVIGNSDKYISSPIHSSVSGTVNDVAPMLFAGGIYVTAVEIKTDGKQEIYEGIKPPSFSNSKEFISAIRESGLVGLGGAGFPAHVKLSPPPDKKIDTLIINAAECEPYITSDYREIIENSWNVVSGINIIMEILGIENVLIGIEDNKPEAIKEMTRVAATDDRINVIKLKSRYPQGAEKMLIYATTGRKVPPGKLPADVGVIVMNVNSVSFISEYIKTGMPLIKKRVTVDGPSVKRPGNVEVLIGTPISEVFSFCGGFGIVPKKILMGGPMMGIAQYTLDTPVLKHTNALLAFDETTAVLPKEQACIRCGRCVRACPMNLLPLYLNNNSIRGNIEELNRYHVMDCIECGSCAYVCPAKINLVQSIRLGKAQVRQAAAKGGN	not soluble
GSDLPIDPNEPTYCLCNQVSYGEMIGCDNDECPIEWFHFSCVGLNHKPKGKWYCPKCRGENE	soluble
LPELSLEELIRMHDHICFLKSLGYTDYQKHLKKSKVLIVGLGKLGANIAYNLCNVGVGSVILFDRTFISPTEISDIYTKDAIGMKKADYLRKKLTSIFPEIEVQNLPDTINISNYLNDSDFDIIIVNSEHFNIKLLSELNDLLYKISTPYMYAWIEGSRGYIGPLIYPPDTSCFNCYLTWRFFGTFMEDKIKAINNYGSSGYIFPLDKIIGALTVLEVCKAIGSLGTPLFNKIILVEVLPTLTIRYIPILKDPKCNVCEG	not soluble
MTGLDKIISQILEDAGKEAQEISEKAKSEAEAVLAEAKAGCKKIAAENDEKLAGEATSYMERIKSSAELKKRQAVLLAKQQVITEMLEQAYEALLKKEGEEYFALIGKMLDKYVLPKTGEIYFSEKDLDRMPQGFEAVIEKAAVSKGGSLTLVKEPKNIDGGFILVYGGIEENCSFRALLAARRDELSDKVHAMLFS	not soluble
MNTQKPFENHLKSVDDLKTTYEEYRAGFIAFALEKNKRSTPYIERARALKVAASVAKTPKDLLYLEDIQDALLYASGISDKAKKFLTEDDKKESINNLIENFLEPAGEEFIDELIFRYLLFQGDSLGGTMRNIAGALAQQKLTRAIISALDIANIPYKWLDSRDKKYTNWMDKPEDDYELETFAKGISWTINGKHRTLMYNITVSLVKKNVDICLFNCEPEIYTPQKVHQQPEKYLLLGELKGGIDPAGADEHWKTANTALTRIRNKFSEKGLSPKTIFIGAAIEHSMAEEIWDQLQSGSLTNSANLTKTEQVGSLCRWIINI	soluble
